Laboratory results published in publication PMC3558696.

Biological target: KERP1 (lysine and glutamic acid rich protein 1), recombinant full-length protein (Entamoeba histolytica (strain HM1:IMSS))
Assay: AUC

stoichiometry N: 3
Substance: KERP1 (lysine and glutamic acid rich protein 1), recombinant full-length protein (natural protein)
